Data reported in publication PMC12624006.

Biological target: Lhcp-2 polypeptide of the prasinophyte light-harvesting complex Lhcp (Ostreococcus tauri) (Ostreococcus tauri)
Assay: cryo-EM structure

## Lhcp-2 polypeptide of the prasinophyte light-harvesting complex Lhcp (Ostreococcus tauri) (natural protein)
  stoichiometry N: 3
